Measured values from the supplement of paper PMC12855868.

B1: library; numbered along this chain (parent)
chain: MAAAGGARLLRAASAVLGGPAGRWLHHAGSRAGSSGLLRNRGPGGSAEASRSLSVSARARSSSEDKITVHFINRDGETLTTKGKVGDSLLDVVVENNLDIDGFGACEGTLACSTCHLIFEDHIYEKLDAITDEENDMLDLAYGLTDRSRLGCQICLTKSMDNMTVRVPETVADARQSIDVGKTS

Variants of: B1
Experiment: scaled log2 fold change in cell abundance, elesclomol vs control (0 = silent mean, 1 = nonsense mean) (scaled log2 ratio); higher = higher viability under elesclomol (loss of FDX1 cuproptosis function)
Details: glucose 10 mM
Method: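 Deep mutational scan of full-length human FDX1: a pooled saturation-mutagenesis ORF library (every residue 2-184 mutated to all 19 amino acids plus stop, and silent codons where available) was expressed by lentivirus in FDX1-knockout ABC1 (14 days) or HEK293T (11 days) cells grown with elesclomol (ES) or DMSO control. Variant abundance came from ORF sequencing. The log2 fold change (ES vs control, mean of duplicates) was centred on the silent-variant mean (0) and scaled to the nonsense-variant mean (1). Higher values mean greater viability under ES, i.e. loss of FDX1 function in cuproptosis.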

[1] = with ABC1 FDX1 KO, elesclomol 5 nM, 14 days
[2] = with HEK293T FDX1 KO, elesclomol 40 nM, 11 days
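Also: variant abundance is its share of total variant reads in each endpoint sample, from next-generation sequencing of the integrated ORF PCR-amplified out of genomic DNA.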

Variant	scaled log2 fold change [1]	scaled log2 fold change [2]
A32N	-0.064	-0.0431
A47G	0.844	0.78
A47P	0.733	0.555
A47W	0.856	0.727
G86T	0.117	-0.144
N96Y	-0.25	-0.153
V85K	0.192	-0.177
S184Y	-0.125	0.879
S184D	-0.159	0.845
I100P	0.146	-0.208
L150I	0.2	-0.337
L150S	0.479	0.331
T145W	0.478	-0.147
R39T	-0.117	0.0293
E125K	0.48	0.921
V167N	0.111	-0.228
C155N	-0.0685	
C155E	-0.828	-0.236
D87F	0.195	-0.393
L110A	0.303	-0.448
D75F	-0.548	0.355
F71G	1.09	0.752
S54F	0.138	0.0641
R58G	-0.484	0.743

Variant	scaled log2 fold change [1]	scaled log2 fold change [2]
D139A	0.113	-0.357
D139S	-0.201	-1.37
A7C	0.0253	0.515
T157A	0.304	0.871
E169L	-0.227	-0.347
A129S	0.0531	-0.075
A129R	0.464	-0.0758
A129I	0.162	-0.508
M163A	-0.185	
L38T	0.403	0.953
L38A	-0.113	
L117Y	1	1.02
G108A	0.21	1.08
A172Y	0.17	
A13T	0.0105	-0.0204
A13C	0.224	0.158
A21I	0.0825	0.0632
G76S	0.164	
A2G	0.451	
R149Y	0.871	0.839
R149F	0.872	1.08
R149L	0.679	0.937
V69A	0.0154	0.807
V69K	1.22	1.85

Variant	scaled log2 fold change [1]	scaled log2 fold change [2]
A111H	-0.198	
A111Q	-0.0306	-0.173
A12R	-0.455	0.571
E77P	0.108	
E77W	0.139	0.815
L98A	-0.194	-1.06
E48L	0.58	1.05
R147N	0.171	0.904
M137T	0.14	-0.403
V55T	0.178	-0.356
G19E	0.246	-0.028
G18F	0.00932	0.79
G18N	0.408	0.649
L89M	0.256	0.404
T80I	0.231	0.056
I130A	0.429	
I130V	0.000565	-0.448
D132F	-0.0218	-0.336
D132L	0.217	-0.447
H116E	-0.124	0.106
V94M	-0.224	1.17
V171L	0.231	0.229
L53M	0.133	0.406
Y142F	0.0438	0.876

Variant	scaled log2 fold change [1]	scaled log2 fold change [2]
Y142H	-0.0863	0.947
Q176D	-0.118	-0.177
G181K	0.227	-0.659
I67K	0.691	0.44
I67A	0.473	0.322
I67Q	0.436	0.135
E133C	0.215	-0.346
R41E	0.0687	-0.798
K66R	0.114	-0.744
K66V	0.0478	-0.102
G83M	0.483	0.859
G83F	0.576	0.231
D173N	0.304	-0.47
H27M	0.0388	
L10S	0.48	1.51
N162D	-0.354	0.0725
G33S	0.208	-0.0845
S148T	0.485	0.124
G102H	0.0379	0.869
Y124H	0.148	1.04
Y124C	0.198	-0.0461
Y124V	-0.329	-0.724
C106I	1.16	1.5
F119R	1.09	0.953

Variant	scaled log2 fold change [1]	scaled log2 fold change [2]
S63Q	-0.105	0.797
S63D	-0.272	-0.143
G143E	-0.312	-0.391
G44D	-0.0132	-0.461
D146T	0.301	-0.841
N73L	-0.0741	0.0359
R11L	0.0826	0.444
V165C	0.0302	0.944
A28K	-0.114	0.248
A28G	0.336	1.17
L17D	0.342	0.653
N97D	0.0523	-0.622
N97G	0.132	-0.242
T114M	0.114	0.455
A141E	0.304	-0.297
G29M	-0.124	-0.568
A3G	0.242	-0.188
A3T	0.122	-0.0717
K182I	0.114	0.677
S113D	0.394	0.644
I72W	0.00502	1.02
N135C	0.138	
E134Q	0.525	-0.44
